According to PMC7506551, “A heterotrimeric SMARCB1–SMARCC2 subcomplex is required for the assembly and tumor suppression function of the BAF chromatin-remodeling complex” (Cell Discovery, 2020):

B1: isolated Rpt1 motif of SMARCB1 (domain or fragment)
chain: DDHDPAVIHENASQPEVLVPIRLDMEIDGQKLRDAFTWNMNEKLMTPEMFSEILCDDLDLNPLTFVPAIASAIRQQIESYPTDS
B2: SMARCC2 (aa 325–518) (domain or fragment, human, UniProt Q8TAQ2 325-518, looked up)
chain: TKSKRGHREEEQEDLTKDMDEPSPVPNVEEVTLPKTVNTKKDSESAPVKGGTMTDLDEQEDESMETTGKDEDENSTGNKGEQTKNPDLHEDNVTEQTHHIIIPSYAAWFDYNSVHAIERRALPEFFNGKNKSKTPEIYLAYRNFMIDTYRLNPQEYLTSTACRRNLAGDVCAIMRVHAFLEQWGLINYQVDAES
notes: SMARCC2/BAF170, human, residues 325-518, holds the SWIRM domain; resolved 423-514 in the crystal, residues 325-422 possibly degraded during crystallization; Two copies stand in the heterotrimer with one SMARCB1 169-385; also called SMARCC2^(325–518); BAF170

Columns and labels:
[1] = biological target: T1, SWIRM domain of SMARCC2 (aa 423–518) (human, UniProt Q8TAQ2 423-518); experiment: ITC; conditions not shown; two-site binding model for SMARCC2 325-518 with SMARCB1 169-385; conditions: both partners purified
T1 construct: SMARCC2/BAF170, human, SWIRM domain, residues 423-518; also called SMARCC2^(423–518); SMARCC2^SWIRM

SMARCB1 (aa 169–385) = biological target: T2, SMARCB1 (aa 169–385) (human, UniProt Q12824 169-385); experiment: as above; conditions: both partners purified
T2 construct: SMARCB1/BAF47/INI1/SNF5, human, residues 169-385, holds the Rpt1 and Rpt2 motifs; resolved 184-356 in the crystal; they may stand in the supplementary information; also called SMARCB1^(169–385); BAF47

Binder	Kd [1]	Kd of one of the two sites (two-site binding model) (SMARCB1 (aa 169–385))
B1	~120 nM	
B2		112 nM
